The values that follow come from publication PMC3817407.

One experiment addresses T1, ECF30_35.
T1 chain: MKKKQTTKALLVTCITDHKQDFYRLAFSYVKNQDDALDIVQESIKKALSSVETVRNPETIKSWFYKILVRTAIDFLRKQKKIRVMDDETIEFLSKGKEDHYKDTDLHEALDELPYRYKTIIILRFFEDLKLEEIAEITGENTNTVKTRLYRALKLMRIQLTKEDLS

For another experiment, the target named is T2, ECF15_436.
T2 chain: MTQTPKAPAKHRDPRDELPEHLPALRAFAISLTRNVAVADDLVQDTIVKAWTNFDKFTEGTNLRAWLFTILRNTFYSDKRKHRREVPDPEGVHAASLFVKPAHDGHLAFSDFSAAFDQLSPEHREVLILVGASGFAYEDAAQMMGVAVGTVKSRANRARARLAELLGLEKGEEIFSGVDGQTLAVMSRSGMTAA

Another experiment has as its target T3, ECF33_423.
T3 chain: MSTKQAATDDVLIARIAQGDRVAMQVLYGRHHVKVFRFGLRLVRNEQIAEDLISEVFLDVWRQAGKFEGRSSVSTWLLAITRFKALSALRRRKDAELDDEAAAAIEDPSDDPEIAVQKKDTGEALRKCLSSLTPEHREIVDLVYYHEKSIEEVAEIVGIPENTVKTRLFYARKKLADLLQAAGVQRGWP

Another experiment has as its target T4, ECF14_3200.
T4 chain: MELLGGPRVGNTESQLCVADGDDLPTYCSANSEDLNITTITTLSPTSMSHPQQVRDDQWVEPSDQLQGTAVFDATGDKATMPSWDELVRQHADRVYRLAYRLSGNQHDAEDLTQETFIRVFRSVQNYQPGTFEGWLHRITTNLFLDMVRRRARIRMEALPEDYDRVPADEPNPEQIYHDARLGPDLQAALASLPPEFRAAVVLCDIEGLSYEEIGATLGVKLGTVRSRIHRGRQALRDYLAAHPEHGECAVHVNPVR

The target of another experiment is T5, ECF02_2817.
T5 chain: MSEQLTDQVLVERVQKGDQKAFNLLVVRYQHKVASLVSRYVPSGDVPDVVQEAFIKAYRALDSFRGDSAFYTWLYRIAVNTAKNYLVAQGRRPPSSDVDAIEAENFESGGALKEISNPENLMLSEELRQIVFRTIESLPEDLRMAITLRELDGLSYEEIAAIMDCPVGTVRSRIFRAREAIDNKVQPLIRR

B1: AS35_3582 (protein)
chain: MNPQKHSASVAEEQMLAHFRAHAPQQPAPALDQAILAAARRQAAHVEPARSWWRRWLEASRRPRWQAAFASLLGVALVLGLVSHNVLDDAERQARPEVAFSDVPLRDGVAGAAAAKRAMRAPAAPAPLSGEMSEPPALLASYASSGEAPQLMAEAAPPAPAALADRPPAQAAQQAKVQAALAGDFVAQARGKAVAVKPEVLDEALGAVLALREQGKTEQAATQLAELQKRFPGENLVERLERLATIAASARKRP
In the case of B1, the fold repression with ECF30_35 was determined as 2.03; with ECF15_436 it was 7.43; with ECF33_423, 3.76; in the experiment with ECF14_3200, 11.7; in the experiment with ECF02_2817, 6.36.

B2: AS31_34 (protein)
chain: MNKEKLSDHLKSEWKKIDQTANPSIPNQKELLHQLSQMKAEYRKKLLQEIILFVFCALMVVSAAILAFTQAPAVFIVLQVCVLAVLPILIAAEKKRHLGECEVKRG
As for B2, the fold repression in the experiment with ECF30_35 came to 1.68; in the experiment with ECF15_436 it was 2.54; with ECF33_423 it was 2.25; in the experiment with ECF14_3200, 2.7; with ECF02_2817, 1.79.

B3: AS33_423 (protein)
chain: MMAMSNTMPDPREPGDVEALLPWYAAGTLNARDARRVADALDRDPALARQYAVILEEYASTIELNESLGAPSSRAMQKLFAAIDAEPARAPGAGQGLGARFAGFFAGLSPKALAWSASVAGLALLLQAGLIGALLTWPHAAPVQTAAYQPQREVARAPASSPAPATVSPPAAAMADRAADAGKSTPPMVMAERSGGPVVRSLAPQSGPRVLVKFAPEARASEIAALLDQYNAVVVDSSRGGLFRLQFGTQSLSKQDQETLIGRLQKEPVVSVVLSAP
On to B3, for which the fold repression amounted to 3.09 in the experiment with ECF30_35; 14.3 in the experiment with ECF15_436; 84.3 with ECF33_423; 12.2 with ECF14_3200; 5.47 with ECF02_2817.

B4: AS33_375 (protein)
chain: MMALSKKMLEQEPSEIELLLPWHAAGTLNARDARRVEDALARDPELAKQYAAIRGEYEETIHLNESLGAPSARAMQKLFGAIDAEPARETGSLPLSARIATFFASLSPRTLAWSASLGAVALVLQAGIIGAVLMKTQPTTFQTASLSTSAPITRELGAAVAPARALVRFTPEARVADITALLDSYQASIIGDAKGGMFRLQFDKAMSQDELASLLGRMQREKFVNLAVAAP
Regarding B4, the fold repression with ECF30_35 is 4.68; with ECF15_436, 20.3; with ECF33_423, 113; in the experiment with ECF14_3200, 17.8; in the experiment with ECF02_2817, 5.75.

B5: AS37_2513 (protein)
chain: MSSAPATKEEVDFALKVRRALDERAASLPDATTDRLAAARRAALARKKPDAAIVLVPALAGSAGTLELRPPGEPRKSLARRLARAWPLALLLAGLIGIAYWEDMQRTAELADIDAAMLSDNLPLTAYLDHGFNAYLSHTH
Consider B5, for which the fold repression is 3.08 with ECF30_35; 5.3 with ECF15_436; 3.3 in the experiment with ECF33_423; 11.4 with ECF14_3200; 4.08 with ECF02_2817.

B6: AS38_1322 (protein)
chain: MSDGNDARPDARDGHDPGSDARDGHDPGSHARDGHDPGAGPFDGHGPGSDAGDGDDAGPDARDGHGAPAGPAGREQRKHPHDTHDMHDTHDTHAGKGTVNHGPAAQGPDAPGADGPATDEAALRAMMQRAVREMEPSDGTLEHLRRAVPARRARKRQALVGAAAAALFLGTAVPALVHVSNATGAGADPSVAGNASQAQGGASQGKDPAGGQSGVAGTGDTPEDRDKADPKETPGGKEPGAATGAPPSGVPSASSPADVPACAPGSLGPAVASSAEPDSTGVVYGSFRVTNVSSDGCTVTGPGTVVTASLGAAEATRIGTARHAAGDAAAGLPDPSLETASLALAPGAAYEVQFAWVPSETCPTTGGTTGGGSGGPSPDPSPTADTTAAGGTSAGGGEAGPTTQLITEDGPAEGSVSVTYTPEGGSGSATATVSNACAGTVYWTGLLADSGSGA
In the case of B6, the fold repression with ECF30_35 was found to be 3.08; in the experiment with ECF15_436, 5.64; with ECF33_423, 3.68; with ECF14_3200 it was 8.3; in the experiment with ECF02_2817, 4.35.

B7: AS27_1331 (protein)
chain: MSAADKDPDKHSADADPPLTVELLADLQAGLLDDATAARIRSRVRSDPQAQQILRALNRVRRDVAAMGADPAWGPAARPAVVDSISAALRSARPNSSPGAAHAARPHVHPVRMIAGAAGLCAVATAIGVGAVVDAPPPAPSAPTTAQHITVSKPAPVIPLSRPQVLDLLHHTPDYGPPGGPLGDPSRRTSCLSGLGYPASTPVLGAQPIDIDARPAVLLVIPADTPDKLAVFAVAPHCSAADTGLLASTVVPRA
For the molecule B7, the fold repression with ECF30_35 was 3.98; with ECF15_436 it was 4.26; in the experiment with ECF33_423, 5.1; with ECF14_3200 it was 2.68; in the experiment with ECF02_2817, 2.82.

B8: AS25_1645 (protein)
chain: MNESFSQRQTDGDRRRGGDLEMKKNHTSHQHHTDSETPMGHNFEQFQRLSAYFDGEATPAERKEIQHLLDTDPQVKQQYQQLRQLKQALQLLPIPTSISAQYLGQRVLARLRRSQLRTLSLWGSGAIAALFVAGVMGQMPRLNFDRFAKNDPDQQPTAALVETSPQGEEALVVALNRPVLQIPKLATTESP
B8: the fold repression in the experiment with ECF30_35 came to 3.43; in the experiment with ECF15_436, 8.62; in the experiment with ECF33_423, 4.92; with ECF14_3200, 14.2; in the experiment with ECF02_2817, 9.88.

B9: AS30_35 (protein)
chain: MDKRLQQLREEYKNVQIPKELDIIVEKALQQEPKKKRIVMWPTSAAIAAAILFTALVNINPDAAQAMSKIPVIGKIVKAITFIEIKEEKDQSSIDVKTPALSGLSNKELENSINEKYLKESQQLYKEFIQSTSKNKKGHLSIYSDYETVTDTPDLLSIRRNIETTQASSYTQSRYITIDKKNDILLTLKSLFKDERYIKVISQNIKEQMKQQMKEDPNKIYWLTDEDAEPFKTILPDQTFYITEDHKLVISFDEYEVAPGYMGVTEFTIPTGVISNLLVGERYIR
As for B9, the fold repression with ECF30_35 was 55.4; in the experiment with ECF15_436, 1.98; with ECF33_423 it was 1.99; with ECF14_3200, 1.91; in the experiment with ECF02_2817 it was 1.56.

B10: AS27_4265 (protein)
chain: MTGHPDVAEIADLAEGLLPTTRTTEVRQHLESCELCADVYASLTEIQGLLGTLPAPAPMPDDVAARIDAALAAEPPLGIADGTRVSRETSTPADRPAGHARPSSTGPGRKDRRRGGRRRIAVLGAVAAAAAIGIGSVVVSSLTEDSSSGNTAREQQTAIADTFSEGRLKDRVTNLVADGSAENGSRTPRSFGMESENGGETAENHVFKQPTVPECIRKGIGRDDAVIATEPGVYKGREALLVVLPDATNDTQVTAYIVETACVDQPAVGKAKILLEHSYARS
Consider B10, for which the fold repression came out at 5.45 with ECF30_35; 3.65 with ECF15_436; 1.63 in the experiment with ECF33_423; 4.49 in the experiment with ECF14_3200; 1.4 with ECF02_2817.
